Laboratory results: patent US20170056486A1

Target: HLA-A*24 (human)
Assay: UV-exchange ELISA (anti-b2m); yield 50%-75%

Binder	peptide exchange yield
VFPRLHNVLF	50 to 75%
VYIESRIGTSTSF	50 to 75%
VYPFENFEF	50 to 75%
NYIPVKNGKQF	50 to 75%
IYNETITDLL	50 to 75%
IYNETVRDLL	50 to 75%
KYFPYLVVI	50 to 75%
PYLVVIHTL	50 to 75%
SYPKIIEEF	50 to 75%
VYVQILQKL	50 to 75%
IYNFVESKL	50 to 75%
IYSFHTLSF	50 to 75%
RYLNKSFVL	50 to 75%
IYLSDLTYI	50 to 75%
KYLNSVQYI	50 to 75%
VYRVYVTTF	50 to 75%
RYGLPAAWSTF	50 to 75%
EYQARIPEF	50 to 75%
VFSRDFGLLVF	50 to 75%
QYFTGNPLF	50 to 75%
EYLDRIGQLFF	50 to 75%
KYLEDMKTYF	50 to 75%
AYIPTPIYF	50 to 75%
IYPEWPVVFF	50 to 75%
IFGIFPNQF	50 to 75%

Binder	peptide exchange yield
SYNGHLTIWF	50 to 75%
KYIFQLNEI	50 to 75%
VYALKVRTI	50 to 75%
NYYERIHAL	50 to 75%
LYLAFPLAF	50 to 75%
DYIPASGFALF	50 to 75%
IYEETRGVL	50 to 75%
RYGDGGSSF	50 to 75%
KYPDIVQQF	50 to 75%
HYVPATKVF	50 to 75%
EYFTPLLSGQF	50 to 75%
RYGFYYVEF	50 to 75%
RYLEAALRL	50 to 75%
NYITGKGDVF	50 to 75%
NYEDHFPLL	50 to 75%
VYEKNGYIYF	50 to 75%
LYSPVPFTL	50 to 75%
FYINGQYQF	50 to 75%
VYFKAGLDVF	50 to 75%
NYSSAVQKF	50 to 75%
TYIPVGLGRLL	50 to 75%
KYLQVVGMF	50 to 75%
VYPPYLNYL	50 to 75%
PYLQDVPRI	50 to 75%
GYKTFFNEF	50 to 75%

Binder	peptide exchange yield
LYSELTETL	50 to 75%
TYPDGTYTGRIF	50 to 75%
RYSTFSEIF	50 to 75%
LYLENNAQTQF	50 to 75%
VYQSLSNSL	50 to 75%
AYIKGGWIL	50 to 75%
SYLNHLNNL	50 to 75%
VFIHHLPQF	50 to 75%
GYNPNRVFF	50 to 75%
RYVEGIVSL	50 to 75%
EYLSTCSKL	50 to 75%
VYPVVLNQI	50 to 75%
LYSDAFKFIVF	50 to 75%
KYLMELTLI	50 to 75%
FYVNVKEQF	50 to 75%
LYSELNKWSF	50 to 75%
SYLKAVFNL	50 to 75%
PYFFANQEF	50 to 75%
TYTNTLERL	50 to 75%
IYRFITERF	50 to 75%
IYQYVADNF	50 to 75%
IYQFVADSF	50 to 75%
TYGMVMVTF	50 to 75%
YYLSDSPLL	50 to 75%
QYLTAAALHNL	50 to 75%
